We go through eight molecules from patent US20200123264A1 (Regeneron, published 2020).

The chains are these.
T1: extracellular domain of human LEPR with an N-terminal myc-myc tag, GPI-anchored on HEK293 cells (human, UniProt P48357 22-839, GPI anchor at the C-terminus ; A GPI anchor is attached at the C end through a carboxypeptidase M derived peptide. The protein is displayed on HEK293 cells.)
T1 construct: also called HEK293/hLEPR-GPI; Mycx2-hLEPR(Ecto)-GPI
T1 sequence: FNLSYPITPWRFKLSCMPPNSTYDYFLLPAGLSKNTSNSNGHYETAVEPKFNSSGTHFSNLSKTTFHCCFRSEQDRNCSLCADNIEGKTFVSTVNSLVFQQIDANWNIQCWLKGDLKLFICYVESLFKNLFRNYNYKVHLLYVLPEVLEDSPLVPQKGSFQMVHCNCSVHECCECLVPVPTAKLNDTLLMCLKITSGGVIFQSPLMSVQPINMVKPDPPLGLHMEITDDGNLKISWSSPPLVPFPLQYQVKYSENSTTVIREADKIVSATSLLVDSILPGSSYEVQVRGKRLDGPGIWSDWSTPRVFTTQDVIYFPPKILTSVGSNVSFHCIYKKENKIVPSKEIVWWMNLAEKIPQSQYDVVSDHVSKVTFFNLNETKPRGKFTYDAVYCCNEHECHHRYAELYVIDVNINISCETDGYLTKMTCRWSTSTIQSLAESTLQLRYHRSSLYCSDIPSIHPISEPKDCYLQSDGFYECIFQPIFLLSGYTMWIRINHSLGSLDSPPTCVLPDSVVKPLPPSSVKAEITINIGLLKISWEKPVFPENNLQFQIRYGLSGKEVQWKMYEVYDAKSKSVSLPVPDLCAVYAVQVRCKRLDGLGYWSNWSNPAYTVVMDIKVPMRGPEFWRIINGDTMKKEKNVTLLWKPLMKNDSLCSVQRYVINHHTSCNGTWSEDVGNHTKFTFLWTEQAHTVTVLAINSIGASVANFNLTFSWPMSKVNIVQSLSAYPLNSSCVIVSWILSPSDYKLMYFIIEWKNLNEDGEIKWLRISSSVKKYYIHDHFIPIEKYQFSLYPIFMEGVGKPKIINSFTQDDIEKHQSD

B1: H4H18440P2 (antibody, human IgG4, V domains shown)
VH: QVQLVESGGGMVKPGGSLRLSCAASGFTFSDYYMSWIRQAPGKGLEWISHISITGSTIYYADSVKGRFTISRDNAKNSLYLEMNRLRDEDTAVYYCTRDEPDIVLVRYGMDVWGQGTTVTVSS
VL: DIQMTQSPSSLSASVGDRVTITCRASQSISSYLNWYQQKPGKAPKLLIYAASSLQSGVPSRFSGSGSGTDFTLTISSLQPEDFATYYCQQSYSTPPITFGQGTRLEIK
notes: H4H prefix: human IgG4 Fc
B2: H4H18466P2 (antibody, human IgG4, V domains shown)
VH: EVQLVESGGGLVQPGGSLRLSCTASGFTFSSYGLHWVRQAPGKGLEYVSSINHNGGSKYYADSVKGRFTISRDNSKNTLFLQMGSLKTEDMAVYYCARDLFLEWLFHGFDIWGQGTMVTVSS
VL: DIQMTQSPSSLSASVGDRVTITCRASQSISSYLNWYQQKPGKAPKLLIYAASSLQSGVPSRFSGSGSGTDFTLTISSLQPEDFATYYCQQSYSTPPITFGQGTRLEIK
notes: H4H prefix: human IgG4 Fc
B3: H4H18437P2 (antibody, human IgG4, V domains shown)
VH: QVQLVESGGGVVQPGRSLRLSCAASGFTFSSYGIHWVRQAPGKGLEWVAVISYDGNNKYYADSVKGRFTISRDNSKNTLYLQMNSLRAEDTAVYYCAKDLFLEWLFHGMGVWGQGTTVTVSS
VL: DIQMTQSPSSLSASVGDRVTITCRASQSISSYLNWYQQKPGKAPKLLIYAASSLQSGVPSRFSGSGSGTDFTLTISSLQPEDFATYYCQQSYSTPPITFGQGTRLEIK
notes: H4H prefix: human IgG4 Fc
B4: H4H18464P2 (antibody, human IgG4, V domains shown)
VH: QVQLVQSGPEVKKPGASVKVSCKGSGYTFSWYGISWIRQAPGHGLEWMGWISASSGNTRFAQKVQGRLTMTTDTSTSTAYMELRSLRSDDTAVYYCARTGTRPFDYWGQGTLVTVSS
VL: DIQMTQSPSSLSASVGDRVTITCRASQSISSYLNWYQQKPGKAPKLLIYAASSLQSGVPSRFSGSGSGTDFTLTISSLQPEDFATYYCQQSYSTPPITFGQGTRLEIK
notes: H4H prefix: human IgG4 Fc
B5: H4H18457P2 (antibody, human IgG4, V domains shown)
VH: EVQLVESGGSVVRPGESLRLSCAASGFTFDDYGMSWVRQAPGKGLEWVSGISWNGGITVYADSVKGRFTVSRDNAKNSLYLQMNSLRAEDTALYHCARARYGGADYWGQGTLVTVSS
VL: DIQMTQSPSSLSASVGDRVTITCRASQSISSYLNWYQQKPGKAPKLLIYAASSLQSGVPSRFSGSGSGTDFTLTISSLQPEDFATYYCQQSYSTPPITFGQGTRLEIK
notes: H4H prefix: human IgG4 Fc
B6: H4H18462P2 (antibody, human IgG4, V domains shown)
VH: EVQLVESGGDLVQPGRSLRLSCAASGFTFSSFAMSWVRQAPGRGLEWVSSLSDSGDNTYYADSVKGRFTISRDNSKNTLYLQMNNLRAEDTAVYYCAKDLFSGWLFHGFDVWGQGTMVTVSS
VL: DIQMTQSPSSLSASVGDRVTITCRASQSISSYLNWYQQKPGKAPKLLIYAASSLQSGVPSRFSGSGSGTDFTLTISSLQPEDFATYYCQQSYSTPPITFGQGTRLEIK
notes: H4H prefix: human IgG4 Fc
B7: H4H18439P2 (antibody, human IgG4, V domains shown)
VH: QLQLQESGPGLVKPSETLSLTCIVSGGDITSSSYYWNWIRQPPGKGLEWIGNIYYSGSTNYNPSLKSRVTISIDTSKSQFSLKLRSVTAADTAVYYCARLLRYFDWSKGYLDYWGQGTLVTVSS
VL: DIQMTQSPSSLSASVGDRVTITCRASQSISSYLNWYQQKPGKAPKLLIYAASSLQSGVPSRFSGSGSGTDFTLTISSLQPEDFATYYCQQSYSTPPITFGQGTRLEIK
notes: H4H prefix: human IgG4 Fc
B8: H4H17322P2 (antibody, human IgG4, V domains shown)
VH: QLQLQESGPGLVKPSETLSLTCTVSGASISSSRFYGGWIRQPPGKGLEWIGDIYYSGNTYYNPSLQSRVTISVDTSKNQFSLKLSSVTAADTAVYYCARHLMITFGGLIVEGFDIWGQGTMVTVSS
VL: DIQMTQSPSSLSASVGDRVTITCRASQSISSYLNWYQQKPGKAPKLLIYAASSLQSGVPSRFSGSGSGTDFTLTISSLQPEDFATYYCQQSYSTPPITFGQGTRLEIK
notes: H4H prefix: human IgG4 Fc

One assay deals with T2, recombinant rat LEPR extracellular domain expressed with a C-terminal myc-myc-hexahistidine tag (rat, UniProt Q62959 22-839).
T2 construct: Monomeric construct; also called rLEPR.MMH; rLEPR-MMH
T2 sequence (Q62959 other isoform, or with tags, fused parts or gaps): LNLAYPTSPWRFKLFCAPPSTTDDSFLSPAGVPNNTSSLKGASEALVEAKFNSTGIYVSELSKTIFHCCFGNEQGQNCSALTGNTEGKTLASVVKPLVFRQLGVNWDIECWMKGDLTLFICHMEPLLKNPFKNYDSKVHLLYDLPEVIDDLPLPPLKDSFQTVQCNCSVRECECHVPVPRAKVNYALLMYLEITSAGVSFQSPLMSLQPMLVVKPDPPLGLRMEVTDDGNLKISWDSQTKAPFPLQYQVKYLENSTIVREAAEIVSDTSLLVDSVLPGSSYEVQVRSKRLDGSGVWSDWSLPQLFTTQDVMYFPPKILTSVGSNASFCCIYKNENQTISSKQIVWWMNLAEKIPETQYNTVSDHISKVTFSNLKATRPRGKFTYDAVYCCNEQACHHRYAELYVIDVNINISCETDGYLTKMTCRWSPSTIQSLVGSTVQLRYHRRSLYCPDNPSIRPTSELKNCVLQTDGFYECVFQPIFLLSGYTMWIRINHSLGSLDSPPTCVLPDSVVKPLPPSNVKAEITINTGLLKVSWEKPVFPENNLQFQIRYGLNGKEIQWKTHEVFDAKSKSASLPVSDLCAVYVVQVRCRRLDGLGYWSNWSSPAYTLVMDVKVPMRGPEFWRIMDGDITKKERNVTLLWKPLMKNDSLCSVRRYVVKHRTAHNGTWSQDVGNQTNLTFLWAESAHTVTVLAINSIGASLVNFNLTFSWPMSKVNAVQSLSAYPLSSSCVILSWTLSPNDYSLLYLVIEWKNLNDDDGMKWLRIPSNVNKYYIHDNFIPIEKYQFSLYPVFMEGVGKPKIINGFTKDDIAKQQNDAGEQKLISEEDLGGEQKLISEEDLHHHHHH
Put plainly: SPR, mAb captured, 25 C. The method, then: (§1) Equilibrium dissociation constants (KD values) for antigen binding to purified anti-LEPR monoclonal antibodies of the invention were determined using a real-time surface plasmon resonance biosensor using a Biacore 4000 instrument. All binding studies were performed in running buffer containing 10 mM HEPES, 150 mM NaCl, 3 mM EDTA, and 0.05% v/v Surfactant Tween-20, pH 7.4 (HBS-ET running buffer) at 25° C. and 37° C. The Biacore sensor surface was first derivatized by amine coupling with a monoclonal mouse anti-human Fc antibody (GE, # BR-1008-39) to the capture anti-LEPR monoclonal antibodies. The LEPR reagents tested for binding to the anti-LEPR monoclonal antibodies included recombinant human LEPR extracellular domain expressed with a C-terminal myc-myc-hexahistidine tag (hLEPR.MMH; SEQ ID NO:90), recombinant cynomolgus monkey LEPR extracellular domain expressed with a C-terminal myc-myc-hexahistidine tag (mfLEPR.MMH; SEQ ID NO:93), recombinant mouse LEPR extracellular domain expressed with a C-terminal myc-myc-hexahistidine tag (mLEPR.MMH; SEQ ID NO:94), recombinant rat LEPR extracellular domain expressed with a C-terminal myc-myc-hexahistidine tag (rLEPR.MMH; SEQ ID NO:95), and recombinant human LEPR extracellular domain expressed with a C-terminal mouse IgG2a Fc tag (hLEPR.mFc; SEQ ID NO:91). LEPR constructs that include MMH tags are monomeric LEPR constructs, and LEPR constructs including an mFc tag are dimeric LEPR constructs. […] The dissociation of monoclonal antibody bound LEPR reagent was monitored for 10 minutes in HBS-ET running buffer. Kinetic association (10 and dissociation (10 rate constants were determined by fitting the real-time binding sensorgrams to a 1:1 binding model with mass transport limitation using Scrubber 2.0c curve-fitting software. Binding dissociation equilibrium constants (KD) and dissociative half-lives (t½) were calculated from the kinetic rate constants as: […]
Consider B1, for which the “100 nM rLEPR-MMH Bound (RU)” value was -2 RU.
Regarding B2, the “100 nM rLEPR-MMH Bound (RU)” value worked out at 5 RU; the dissociation constant Kd (usually a measure of binding affinity in units of concentration) came out at 943 nM; the koff (in general, the rate constant with which the complex falls apart) was determined as 0.0198 s⁻¹; the kon (as a rule, a measure of how fast the partners come together) turned out to be 21000 M⁻¹ s⁻¹. In addition, the t½ (usually how long it takes for the measured level to halve) was 0.6 min.
B3: the “100 nM rLEPR-MMH Bound (RU)” value worked out at 13 RU, the Kd was determined as 328 nM, the koff turned out to be 0.0138 s⁻¹ and the kon was 42100 M⁻¹ s⁻¹. The t½ came out at 0.8 min.
With B4, the “100 nM rLEPR-MMH Bound (RU)” value is -1 RU.
With B5, the “100 nM rLEPR-MMH Bound (RU)” value amounted to 18 RU, the Kd is 730 nM, the koff was determined as 0.0206 s⁻¹ and the kon stood at 28300 M⁻¹ s⁻¹. For the same molecule, the t½ is 0.6 min.
For B6, in that order: 5 RU, 336 nM, 0.0108 s⁻¹, 32100 M⁻¹ s⁻¹ and 1.1 min.
Turning to B7, the “100 nM rLEPR-MMH Bound (RU)” value was -1 RU.

Another assay addresses T3, recombinant human LEPR extracellular domain expressed with a C-terminal myc-myc-hexahistidine tag (human, UniProt P48357 22-839).
T3 construct: Monomeric construct; also called hLEPR.MMH; hLEPR-MMH
The assay is described as follows: SPR, mAb captured, 25 C. The method, then: as §1
With B1, the “100 nM hLEPR-MMH Bound (RU)” value came to 71 RU, the Kd stood at 11.8 nM, the koff worked out at 0.000497 s⁻¹ and the on-rate (kon) turned out to be 42300 M⁻¹ s⁻¹. Also, the t½ was 23 min.
For B2, in that order: 24 RU, 194 nM, 0.00511 s⁻¹, 26400 M⁻¹ s⁻¹ and 2.3 min.
In the case of B3, the “100 nM hLEPR-MMH Bound (RU)” value stood at 56 RU, the Kd was 65.3 nM, the koff came out at 0.00375 s⁻¹ and the kon was determined as 57400 M⁻¹ s⁻¹. Further, the t½ turned out to be 3.1 min.
The corresponding values for B4 are 60 RU, 9.09 nM, 0.00113 s⁻¹, 124000 M⁻¹ s⁻¹ and 10 min.
Turning to B8, the “100 nM hLEPR-MMH Bound (RU)” value was 66 RU, the Kd is 5.11 nM, the koff was found to be 0.000224 s⁻¹ and the kon came to 43800 M⁻¹ s⁻¹. Moreover, the t½ stood at 52 min.
As for B5, the “100 nM hLEPR-MMH Bound (RU)” value turned out to be 119 RU, the Kd was determined as 9.89 nM, the koff was 0.00252 s⁻¹ and the kon is 255000 M⁻¹ s⁻¹. In addition, the t½ amounted to 5 min.
The corresponding values for B6 are 34 RU, 113 nM, 0.00765 s⁻¹, 67900 M⁻¹ s⁻¹ and 1.5 min.
Turning to B7, the “100 nM hLEPR-MMH Bound (RU)” value came out at 21 RU, the Kd turned out to be 106 nM, the koff worked out at 0.00113 s⁻¹ and the kon was determined as 10700 M⁻¹ s⁻¹. Further, the t½ came out at 10 min.

The target of another assay is T1, extracellular domain of human LEPR with …. Put plainly: FACS, 10 nM Ab, HEK293/hLEPR-GPI cells, no added Leptin. The method, then:
For the FACS analysis, HEK293 parental cells and HEK293/hLEPR-GPI cells were dissociated and plated onto 96-well v-bottom plates at 5×10⁵ cells/well in PBS containing 2% FBS (FACS buffer). […] Cells were subsequently fixed using BD CytoFix™ (Becton Dickinson, #554655), filtered, and analyzed on a HyperCyt Flow Cytometer (Beckman Coulter). Unstained and secondary antibody alone controls were also tested for all cell lines. The results were analyzed using ForeCyt (IntelliCyt) and FlowJo version 10 softwares to determine the geometric means of fluorescence for viable cells. The geometric mean of fluorescence for each sample was then normalized to the geometric mean of unstained cells to obtain relative binding per condition referred to as “binding ratios”, and these binding ratios were recorded in Table 14 for each antibody tested.
In the case of B1, the “Binding Ratio (normalized to unstained)” value stood at 1640 fold.
On the same count and under the same terms, next, B2: 824 fold; B4: 2320 fold.
Same read-out and setting: next, B5: 3190 fold; B6: 1170 fold; B7: 1530 fold.

In a further assay the target is T4, extracellular domain portion of LEPR protein expressed with a C-terminal human Fc tag (human).
T4 construct: Dimeric construct; also called hLEPR.hFc; hLEPR-hFc
The assay is described as follows: competition ELISA, 500 nM Ab, 10 nM hLEPR-hFc binding to coated hLeptin. The method, then: These antibody-protein or protein-protein complexes were then incubated for 1.5 hour at room temperature (RT). […] Samples were developed with a TMB solution (BD Biosciences, #555214; substrate A and B mixed at 1:1 ratio as per manufacturer's instructions) to produce a colorimetric reaction and then neutralized with 1M sulfuric acid before measuring absorbance at 450 nm on a Victor X5 plate reader. Data analysis was performed using a sigmoidal dose-response model within Prism™ software (Graph Pad).
On to B1, for which the “% blockade” value was determined as 3%.
On to B2, for which the “% blockade” value was determined as 2%.
On the same count and under the same terms, next, B3: 9%; B4: -5%; B8: 13%.
The same measure, in the same setting: in the case of B5 it was 4%.
For B6, the “% blockade” value was found to be 14%.
B7: the “% blockade” value was -1%.
